B1: ZNF24 (parent)
chain: YGETCFPKGRFERKRNPSRKKQHI

Variants of: B1
Test: protein stability index of a GFP-peptide fusion (GPS, HEK-293T) (PSI 1-6); higher = more stable
Settings: c terminus: a fixed tail appended
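Also: lentivirally expressed fusions sorted by FACS into six bins by GFP to DsRed ratio, PSI derived from sequencing read proportions per bin multiplied by bin number.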

Variant	protein stability index
YGETCFRKGRFERKRNPSRKKQHI [P7R]	2.93
YGETCFWKGRFERKRNPSRKKQHI [P7W]	2.57
YGETCFQKGRFERKRNPSRKKQHI [P7Q]	2.26
YGETCFSKGRFERKRNPSRKKQHI [P7S]	2.28
YGETCFYKGRFERKRNPSRKKQHI [P7Y]	1.76
YGETCFIKGRFERKRNPSRKKQHI [P7I]	2.5
YGETCFMKGRFERKRNPSRKKQHI [P7M]	3.07
YGETCFHKGRFERKRNPSRKKQHI [P7H]	2.43
YGETCFLKGRFERKRNPSRKKQHI [P7L]	1.9
YGETCFTKGRFERKRNPSRKKQHI [P7T]	3.02
YGETCFGKGRFERKRNPSRKKQHI [P7G]	2.82
YGETCFDKGRFERKRNPSRKKQHI [P7D]	3.5
YGETCFCKGRFERKRNPSRKKQHI [P7C]	2.81
YGETCFNKGRFERKRNPSRKKQHI [P7N]	3.69
YGETCFAKGRFERKRNPSRKKQHI [P7A]	2.77
YGETCFVKGRFERKRNPSRKKQHI [P7V]	3.12
YGETCFEKGRFERKRNPSRKKQHI [P7E]	3.63
YGETCFKKGRFERKRNPSRKKQHI [P7K]	3.35
TGETCFPKGRFERKRNPSRKKQHI [Y1T]	3.6
QGETCFPKGRFERKRNPSRKKQHI [Y1Q]	3.96
SGETCFPKGRFERKRNPSRKKQHI [Y1S]	4.4
PGETCFPKGRFERKRNPSRKKQHI [Y1P]	4.1
WGETCFPKGRFERKRNPSRKKQHI [Y1W]	2.6
RGETCFPKGRFERKRNPSRKKQHI [Y1R]	3.63

Variant	protein stability index
VGETCFPKGRFERKRNPSRKKQHI [Y1V]	4.09
YGETCFPKGRTERKRNPSRKKQHI [F11T]	3.28
YGETCFPKGRCERKRNPSRKKQHI [F11C]	2.58
YGETCFPKGREERKRNPSRKKQHI [F11E]	3.16
YGETCFPKGRLERKRNPSRKKQHI [F11L]	2.35
YGETCFPKGRSERKRNPSRKKQHI [F11S]	3.18
YGETCFPKGRIERKRNPSRKKQHI [F11I]	2.59
YGETCFPKGRAERKRNPSRKKQHI [F11A]	3.43
YGETCFPKGRNERKRNPSRKKQHI [F11N]	3.33
YGETCFPKGRMERKRNPSRKKQHI [F11M]	2.55
YGETCFPKGRPERKRNPSRKKQHI [F11P]	2.97
YGETCFPKGRGERKRNPSRKKQHI [F11G]	3.32
YGETCFPKGRHERKRNPSRKKQHI [F11H]	3.05
YGETCFPKGRKERKRNPSRKKQHI [F11K]	3.13
YGETCFPKGRQERKRNPSRKKQHI [F11Q]	3.41
YGETCFPKGRDERKRNPSRKKQHI [F11D]	2.99
YGETCFPVGRFERKRNPSRKKQHI [K8V]	2.36
YGETCFPSGRFERKRNPSRKKQHI [K8S]	2.42
YGETCFPIGRFERKRNPSRKKQHI [K8I]	2.49
YGETCFPCGRFERKRNPSRKKQHI [K8C]	1.68
YGETCFPYGRFERKRNPSRKKQHI [K8Y]	2.74
YGETCFPEGRFERKRNPSRKKQHI [K8E]	2.96
YGETCFPLGRFERKRNPSRKKQHI [K8L]	2.07
YGETCFPQGRFERKRNPSRKKQHI [K8Q]	2.13

Variant	protein stability index
YGETCFPTGRFERKRNPSRKKQHI [K8T]	2.49
YGETCFPPGRFERKRNPSRKKQHI [K8P]	2.11
YGETCFPNGRFERKRNPSRKKQHI [K8N]	1.93
YGETCFPAGRFERKRNPSRKKQHI [K8A]	2.17
YGETCFPHGRFERKRNPSRKKQHI [K8H]	2.1
YGETCFPDGRFERKRNPSRKKQHI [K8D]	3.56
YGETCFPRGRFERKRNPSRKKQHI [K8R]	2.88
YGETCFPGGRFERKRNPSRKKQHI [K8G]	2.93
YGERCFPKGRFERKRNPSRKKQHI [T4R]	3.37
YGEHCFPKGRFERKRNPSRKKQHI [T4H]	2.98
YGEECFPKGRFERKRNPSRKKQHI [T4E]	3.24
YGENCFPKGRFERKRNPSRKKQHI [T4N]	2.37
YGESCFPKGRFERKRNPSRKKQHI [T4S]	3.43
YGEACFPKGRFERKRNPSRKKQHI [T4A]	2.96
YGEDCFPKGRFERKRNPSRKKQHI [T4D]	3.14
YGEKCFPKGRFERKRNPSRKKQHI [T4K]	2.13
YGEFCFPKGRFERKRNPSRKKQHI [T4F]	2.1
YGEYCFPKGRFERKRNPSRKKQHI [T4Y]	2.09
YGEVCFPKGRFERKRNPSRKKQHI [T4V]	3.38
YGEWCFPKGRFERKRNPSRKKQHI [T4W]	1.02
YGEMCFPKGRFERKRNPSRKKQHI [T4M]	2.47
YGECCFPKGRFERKRNPSRKKQHI [T4C]	2.12
YGEICFPKGRFERKRNPSRKKQHI [T4I]	3.04
YGEPCFPKGRFERKRNPSRKKQHI [T4P]	1.89

Variant	protein stability index
YGELCFPKGRFERKRNPSRKKQHI [T4L]	2.45
YGEGCFPKGRFERKRNPSRKKQHI [T4G]	2.33
YGETCFPKWRFERKRNPSRKKQHI [G9W]	2.15
YGETCFPKNRFERKRNPSRKKQHI [G9N]	3.06
YGETCFPKYRFERKRNPSRKKQHI [G9Y]	3.75
YGETCFPKMRFERKRNPSRKKQHI [G9M]	2.18
YGETCFPKKRFERKRNPSRKKQHI [G9K]	3.15
YGETCFPKTRFERKRNPSRKKQHI [G9T]	2.7
YGETCFPKQRFERKRNPSRKKQHI [G9Q]	3.28
YGETCFPKIRFERKRNPSRKKQHI [G9I]	1.94
YGETCFPKCRFERKRNPSRKKQHI [G9C]	1.98
YGETCFPKLRFERKRNPSRKKQHI [G9L]	2.12
YGETCFPKHRFERKRNPSRKKQHI [G9H]	2.72
YGETCFPKVRFERKRNPSRKKQHI [G9V]	1.72
YGETCFPKPRFERKRNPSRKKQHI [G9P]	2.41
YGETCFPKDRFERKRNPSRKKQHI [G9D]	2.71
YGETCFPKARFERKRNPSRKKQHI [G9A]	2.11
YGETCFPKERFERKRNPSRKKQHI [G9E]	3.39
YGETCFPKSRFERKRNPSRKKQHI [G9S]	3
YGETCFPKRRFERKRNPSRKKQHI [G9R]	2.85
YGETCFPKFRFERKRNPSRKKQHI [G9F]	2.29
YYETCFPKGRFERKRNPSRKKQHI [G2Y]	2.58
YEETCFPKGRFERKRNPSRKKQHI [G2E]	4.37
YWETCFPKGRFERKRNPSRKKQHI [G2W]	3.17

Variant	protein stability index
YQETCFPKGRFERKRNPSRKKQHI [G2Q]	3.44
YPETCFPKGRFERKRNPSRKKQHI [G2P]	2.89
YAETCFPKGRFERKRNPSRKKQHI [G2A]	2.34
YDETCFPKGRFERKRNPSRKKQHI [G2D]	4.33
YNETCFPKGRFERKRNPSRKKQHI [G2N]	3.65
YMETCFPKGRFERKRNPSRKKQHI [G2M]	3
YKETCFPKGRFERKRNPSRKKQHI [G2K]	3.21
YRETCFPKGRFERKRNPSRKKQHI [G2R]	3.41
YLETCFPKGRFERKRNPSRKKQHI [G2L]	2.58
YFETCFPKGRFERKRNPSRKKQHI [G2F]	2.51
YTETCFPKGRFERKRNPSRKKQHI [G2T]	2.33
YHETCFPKGRFERKRNPSRKKQHI [G2H]	2.15
YSETCFPKGRFERKRNPSRKKQHI [G2S]	3.4
YVETCFPKGRFERKRNPSRKKQHI [G2V]	2.74
YIETCFPKGRFERKRNPSRKKQHI [G2I]	1.76
YCETCFPKGRFERKRNPSRKKQHI [G2C]	2.1
YGETGFPKGRFERKRNPSRKKQHI [C5G]	2.17
YGETDFPKGRFERKRNPSRKKQHI [C5D]	2.67
YGETEFPKGRFERKRNPSRKKQHI [C5E]	3.15
YGETQFPKGRFERKRNPSRKKQHI [C5Q]	3.15
YGETRFPKGRFERKRNPSRKKQHI [C5R]	3.29
YGETYFPKGRFERKRNPSRKKQHI [C5Y]	1.95
YGETHFPKGRFERKRNPSRKKQHI [C5H]	3.63
YGETMFPKGRFERKRNPSRKKQHI [C5M]	2.25

Variant	protein stability index
YGETPFPKGRFERKRNPSRKKQHI [C5P]	3.61
YGETLFPKGRFERKRNPSRKKQHI [C5L]	3.05
YGETTFPKGRFERKRNPSRKKQHI [C5T]	2.47
YGETFFPKGRFERKRNPSRKKQHI [C5F]	3.83
YGETKFPKGRFERKRNPSRKKQHI [C5K]	4.01
YGETNFPKGRFERKRNPSRKKQHI [C5N]	2.43
YGETAFPKGRFERKRNPSRKKQHI [C5A]	3.17
YGETVFPKGRFERKRNPSRKKQHI [C5V]	3.17
YGETSFPKGRFERKRNPSRKKQHI [C5S]	3.7
YGETIFPKGRFERKRNPSRKKQHI [C5I]	3.16
YGETWFPKGRFERKRNPSRKKQHI [C5W]	2.53
YGETCFPKGLFERKRNPSRKKQHI [R10L]	2.67
YGETCFPKGKFERKRNPSRKKQHI [R10K]	2.71
YGETCFPKGSFERKRNPSRKKQHI [R10S]	2.82
YGETCFPKGMFERKRNPSRKKQHI [R10M]	2.9
YGETCFPKGFFERKRNPSRKKQHI [R10F]	2.83
YGETCFPKGCFERKRNPSRKKQHI [R10C]	2.66
YGETCFPKGVFERKRNPSRKKQHI [R10V]	2.24
YGETCFPKGPFERKRNPSRKKQHI [R10P]	2.56
YGETCFPKGTFERKRNPSRKKQHI [R10T]	3.23
YGETCFPKGQFERKRNPSRKKQHI [R10Q]	3.38
YGETCFPKGDFERKRNPSRKKQHI [R10D]	3.66
YGETCFPKGNFERKRNPSRKKQHI [R10N]	2.93
YGETCFPKGWFERKRNPSRKKQHI [R10W]	1.71

Variant	protein stability index
YGETCFPKGGFERKRNPSRKKQHI [R10G]	3.44
YGETCFPKGEFERKRNPSRKKQHI [R10E]	3.07
YGETCFPKGHFERKRNPSRKKQHI [R10H]	2.55
YGETCFPKGIFERKRNPSRKKQHI [R10I]	2.92
YGETCFPKGYFERKRNPSRKKQHI [R10Y]	2.72
YGETCFPKGAFERKRNPSRKKQHI [R10A]	2.6
YGETCTPKGRFERKRNPSRKKQHI [F6T]	4.36
YGETCQPKGRFERKRNPSRKKQHI [F6Q]	4.02
YGETCEPKGRFERKRNPSRKKQHI [F6E]	4.51
YGETCKPKGRFERKRNPSRKKQHI [F6K]	3.38
YGETCVPKGRFERKRNPSRKKQHI [F6V]	3.82
YGETCIPKGRFERKRNPSRKKQHI [F6I]	3.61
YGETCDPKGRFERKRNPSRKKQHI [F6D]	4.46
YGETCGPKGRFERKRNPSRKKQHI [F6G]	3.8
YGETCMPKGRFERKRNPSRKKQHI [F6M]	4.07
YGETCLPKGRFERKRNPSRKKQHI [F6L]	3.79
YGETCCPKGRFERKRNPSRKKQHI [F6C]	3.87
YGETCPPKGRFERKRNPSRKKQHI [F6P]	4.35
YGETCYPKGRFERKRNPSRKKQHI [F6Y]	4.74
YGETCRPKGRFERKRNPSRKKQHI [F6R]	3.7
YGETCHPKGRFERKRNPSRKKQHI [F6H]	4.08
YGETCAPKGRFERKRNPSRKKQHI [F6A]	3.64
YGETCNPKGRFERKRNPSRKKQHI [F6N]	4.03
YGETCSPKGRFERKRNPSRKKQHI [F6S]	3.73

Variant	protein stability index
YGETCWPKGRFERKRNPSRKKQHI [F6W]	1.77
YGYTCFPKGRFERKRNPSRKKQHI [E3Y]	2.37
YGCTCFPKGRFERKRNPSRKKQHI [E3C]	2.75
YGLTCFPKGRFERKRNPSRKKQHI [E3L]	2.96
YGRTCFPKGRFERKRNPSRKKQHI [E3R]	2.9
YGNTCFPKGRFERKRNPSRKKQHI [E3N]	1.95
YGHTCFPKGRFERKRNPSRKKQHI [E3H]	2.56
YGSTCFPKGRFERKRNPSRKKQHI [E3S]	2.04
YGFTCFPKGRFERKRNPSRKKQHI [E3F]	2.71
YGQTCFPKGRFERKRNPSRKKQHI [E3Q]	3.2
YGATCFPKGRFERKRNPSRKKQHI [E3A]	2.4
YGTTCFPKGRFERKRNPSRKKQHI [E3T]	2.62
YGDTCFPKGRFERKRNPSRKKQHI [E3D]	2.2
YGITCFPKGRFERKRNPSRKKQHI [E3I]	2.71
YGGTCFPKGRFERKRNPSRKKQHI [E3G]	2
YGPTCFPKGRFERKRNPSRKKQHI [E3P]	2.54
YGWTCFPKGRFERKRNPSRKKQHI [E3W]	2.26
YGVTCFPKGRFERKRNPSRKKQHI [E3V]	3.66
YGMTCFPKGRFERKRNPSRKKQHI [E3M]	3.41
YGKTCFPKGRFERKRNPSRKKQHI [E3K]	3.11

Source: the supplement of paper PMC10567573
